Assay results as given in paper PMC10190533, “Engineering Escherichia coli to Utilize Erythritol as Sole Carbon Source” (Advanced Science, 2022).

Molecular target: the molecule itself
Assay: SEC + native gel or EMSA

B1: eryD, erythritol-binding transcriptional repressor from Ochrobactrum spp. (natural protein)
chain: MADADDSLALRAAWLHFVAGMTQSAVAKRLGLPSVKAHRLIAKAVADGAVKVTIDGDITECIDLENRLADLYGLDYCEVAPDIGEEGLPLMALGHAGANFMRREIEHGDHEVIGIGHGRTLSAAVGYMPRVMANDLRFVSLLGGLTRNFAANPHDVMHRIAEKTGMPAYVMPVPFFANTAEDREVLLAQRGVTTVFDMGCRAELKIVGIGTVDAQAQLVTSGMIELGEVEEIANLGGVGEMLGHFFNANGQWLETALTGRTIAASVENADMSRIVALAGGLSKVDAIRAVLKSGRLYGLITDERTAKALIGQPNGK
notes: also called erythritol-responding genetic repressor eryD
stoichiometry N: 4
